Reference: paper PMC2120984
Like-named read-outs stand apart in the source and are kept apart here.

Assays:
[1] = target: alpha v integrins of OV10 cells (human (endogenous in OV10)); assay: binding of protein-coated beads to adherent cells
[2] = target: alpha v integrins of OV10 cells (human (endogenous in OV10)); assay: binding of protein-coated beads to adherent cells; remark: listed apart in the source

With “Vitronectin (from UniProt P04004) (ligand)” the attachment index (beads bound per 100 cells) (beads bound per 100 cells) [1] was 181 and the attachment index (beads bound per 100 cells) (beads bound per 100 cells) [2] was 373.
